For data set [1], the system named is Rhodococcus sp. Description: Activity of Rhodococcus sp. M777 Endoglycoceramidase 2 containing wild type sequence E351S.
Data set [2] deals with Rhodococcus sp. Description: Ratio of Kcat to Km of Activity of Rhodococcus sp. M777 Endoglycoceramidase 2 containing wild type sequence E351S.
A short description of data set [3]: Inhibition of Rhodococcus sp. M777 Endoglycoceramidase 2 containing wild type sequence E351S.
Substrate in data set [4]: CCCCCCCCCCCCCC[C@@H](O)[C@@H](O)[C@@H](N)CO
Description: Ratio of Kcat to Km of Activity of Rhodococcus sp. M777 Endoglycoceramidase 2 V101M K200R mutant.

Substrate in data set [5]: CC(=O)N[C@H]1[C@H](O[C@@H]2[C@H](O[C@]3(C(=O)O)C[C@H](O)[C@@H](NC(C)=O)[C@H]([C@@H](O)[C@@H](O)CO)O3)[C@@H](O)[C@H](O[C@H]3[C@H](O)[C@@H](O)[C@@H](F)O[C@@H]3CO)O[C@@H]2CO)O[C@H](CO)[C@H](O)[C@@H]1O[C@@H]1O[C@H](CO)[C@H](O)[C@H](O)[C@H]1O
As to the kind of experiment: (§1) Ratio of Kcat to Km of Activity of Rhodococcus sp. M777 Endoglycoceramidase 2 I183F mutant.

Substrate in data set [6]: CCCCCCCCCCCCC/C=C/[C@@H](O)[C@@H](N)CO
The description is as §1.

Substrate in data set [7]: CC(=O)N[C@H]1[C@H](O[C@@H]2[C@H](O[C@]3(C(=O)O)C[C@H](O)[C@@H](NC(C)=O)[C@H]([C@@H](O)[C@@H](O)CO)O3)[C@@H](O)[C@H](O[C@H]3[C@H](O)[C@@H](O)[C@@H](F)O[C@@H]3CO)O[C@@H]2CO)O[C@H](CO)[C@H](O)[C@@H]1O[C@@H]1O[C@H](CO)[C@H](O)[C@H](O)[C@H]1O
Description: (§2) Activity of Rhodococcus sp. M777 Endoglycoceramidase 2 I183F mutant.

Substrate in data set [8]: CCCCCCCCCCCCC/C=C/[C@@H](O)[C@@H](N)CO
The data set is described as §2.

Substrate in data set [9]: CC(=O)N[C@H]1[C@H](O[C@@H]2[C@H](O[C@]3(C(=O)O)C[C@H](O)[C@@H](NC(C)=O)[C@H]([C@@H](O)[C@@H](O)CO)O3)[C@@H](O)[C@H](O[C@H]3[C@H](O)[C@@H](O)[C@@H](F)O[C@@H]3CO)O[C@@H]2CO)O[C@H](CO)[C@H](O)[C@@H]1O[C@@H]1O[C@H](CO)[C@H](O)[C@H](O)[C@H]1O
As to the kind of experiment: (§3) Activity of Rhodococcus sp. M777 Endoglycoceramidase 2 A153T mutant.

Substrate in data set [10]: CCCCCCCCCCCCC/C=C/[C@@H](O)[C@@H](N)CO
The data set is described as §3.

Substrate in data set [11]: CC(=O)N[C@H]1[C@H](O[C@@H]2[C@H](O[C@]3(C(=O)O)C[C@H](O)[C@@H](NC(C)=O)[C@H]([C@@H](O)[C@@H](O)CO)O3)[C@@H](O)[C@H](O[C@H]3[C@H](O)[C@@H](O)[C@@H](F)O[C@@H]3CO)O[C@@H]2CO)O[C@H](CO)[C@H](O)[C@@H]1O[C@@H]1O[C@H](CO)[C@H](O)[C@H](O)[C@H]1O
Description: (§4) Ratio of Kcat to Km of Activity of Rhodococcus sp. M777 Endoglycoceramidase 2 A153T mutant.

Substrate in data set [12]: CCCCCCCCCCCCC/C=C/[C@@H](O)[C@@H](N)CO
Described as §4.

Substrate in data set [13]: CC(=O)N[C@H]1[C@H](O[C@@H]2[C@H](O[C@]3(C(=O)O)C[C@H](O)[C@@H](NC(C)=O)[C@H]([C@@H](O)[C@@H](O)CO)O3)[C@@H](O)[C@H](O[C@H]3[C@H](O)[C@@H](O)[C@@H](F)O[C@@H]3CO)O[C@@H]2CO)O[C@H](CO)[C@H](O)[C@@H]1O[C@@H]1O[C@H](CO)[C@H](O)[C@H](O)[C@H]1O
Description: (§5) Activity of Rhodococcus sp. M777 Endoglycoceramidase 2 V269I G370R mutant.

Substrate in data set [14]: CCCCCCCCCCCCC/C=C/[C@@H](O)[C@@H](N)CO
The description is as §5.

Substrate in data set [15]: CC(=O)N[C@H]1[C@H](O[C@@H]2[C@H](O[C@]3(C(=O)O)C[C@H](O)[C@@H](NC(C)=O)[C@H]([C@@H](O)[C@@H](O)CO)O3)[C@@H](O)[C@H](O[C@H]3[C@H](O)[C@@H](O)[C@@H](F)O[C@@H]3CO)O[C@@H]2CO)O[C@H](CO)[C@H](O)[C@@H]1O[C@@H]1O[C@H](CO)[C@H](O)[C@H](O)[C@H]1O
As to the kind of experiment: (§6) Ratio of Kcat to Km of Activity of Rhodococcus sp. M777 Endoglycoceramidase 2 V269I G370R mutant.

Substrate in data set [16]: CCCCCCCCCCCCC/C=C/[C@@H](O)[C@@H](N)CO
Described as §6.

Substrate in data set [17]: CCCCCCCCCCCCCC[C@@H](O)[C@@H](O)[C@@H](N)CO
As to the kind of experiment: Ratio of Kcat to Km of Activity of Rhodococcus sp. M777 Endoglycoceramidase 2 K129N mutant.

Substrate in data set [18]: CCCCCCCCCCCCCC[C@@H](O)[C@@H](O)[C@@H](N)CO
Description: Ratio of Kcat to Km of Activity of Rhodococcus sp. M777 Endoglycoceramidase 2 N148S mutant.

Substrate in data set [19]: CC(=O)N[C@H]1[C@H](O[C@@H]2[C@H](O[C@]3(C(=O)O)C[C@H](O)[C@@H](NC(C)=O)[C@H]([C@@H](O)[C@@H](O)CO)O3)[C@@H](O)[C@H](O[C@H]3[C@H](O)[C@@H](O)[C@@H](F)O[C@@H]3CO)O[C@@H]2CO)O[C@H](CO)[C@H](O)[C@@H]1O[C@@H]1O[C@H](CO)[C@H](O)[C@H](O)[C@H]1O
As to the kind of experiment: (§7) Activity of Rhodococcus sp. M777 Endoglycoceramidase 2 V269I mutant.

Substrate in data set [20]: CCCCCCCCCCCCC/C=C/[C@@H](O)[C@@H](N)CO
The data set is described as §7.

Substrate in data set [21]: CC(=O)N[C@H]1[C@H](O[C@@H]2[C@H](O[C@]3(C(=O)O)C[C@H](O)[C@@H](NC(C)=O)[C@H]([C@@H](O)[C@@H](O)CO)O3)[C@@H](O)[C@H](O[C@H]3[C@H](O)[C@@H](O)[C@@H](F)O[C@@H]3CO)O[C@@H]2CO)O[C@H](CO)[C@H](O)[C@@H]1O[C@@H]1O[C@H](CO)[C@H](O)[C@H](O)[C@H]1O
As to the kind of experiment: (§8) Ratio of Kcat to Km of Activity of Rhodococcus sp. M777 Endoglycoceramidase 2 V269I mutant.

Substrate in data set [22]: CCCCCCCCCCCCC/C=C/[C@@H](O)[C@@H](N)CO
Described as §8.

Where a chain is given by its changes, count along the chain named. Numbers in names are those of the source.

From ChEMBL document CHEMBL1212722, “Designer enzymes for glycosphingolipid synthesis by directed evolution” (Nat Chem Biol, 2009) come the findings set out here.

As for `CCCCCCCCCCCCC/C=C/[C@@H](O)[C@@H](N)CO`, in data set [1], the Km (in general, the concentration of substrate that gives half-maximal velocity) is 410 µM and the kcat – broadly, the maximal rate divided by the concentration of active sites – was 0.19 s⁻¹. For the same molecule, the kcat/Km (as a rule, the turnover number divided by the Michaelis constant) in [2] is 463 M⁻¹ s⁻¹.
Turning to `CCCCCCCCCCCCCC[C@@H](O)[C@@H](O)[C@@H](N)CO` [PHYTOSPHINGOSINE], in data set [3], the Ki (usually the equilibrium dissociation constant of an inhibitor or competing ligand from its target) came out at 850 µM.
On to `CC(=O)N[C@H]1[C@H](O[C@@H]2[C@H](O[C@]3(C(=O)O)C[C@H](O)[C@@H](NC(C)=O)[C@H]([C@@H](O)[C@@H](O)CO)O3)[C@@H](O)[C@H](O[C@H]3[C@H](O)[C@@H](O)[C@@H](F)O[C@@H]3CO)O[C@@H]2CO)O[C@H](CO)[C@H](O)[C@@H]1O[C@@H]1O[C@H](CO)[C@H](O)[C@H](O)[C@H]1O`, for which, in data set [1], the Km amounted to 770 µM and the kcat amounted to 0.21 s⁻¹. In [2], the kcat/Km was found to be 273 M⁻¹ s⁻¹.

B1: Endoglycoceramidase II (Rhodococcus sp), A0ACD6B832 V101M,K200R (protein)
chain: MRRTRLVSLIVTGSLVFGGGVAAAQSSLAASGSGSGSGTALTPSYLKDDDGRSLILRGFNTASSAKSAPDGMPQFTEADLAREYADMGTNFVRFLISWRSMEPAPGVYDQQYLDRVEDRVGWYAERGYKVMLDMHQDVYSGAITPEGNSGNGAGAIGNGAPAWATYMDGLPVEPQPRWELYYIQPGVMRAFDNFWNTTGRHPELVEHYAKAWRAVADRFADNDAVVAYDLMNEPFGGSLQGPAFEAGPLAAMYQRTTDAIRQVDQDTWVCVAPQAIGVNQGLPSGLTKIDDPRAGQQRIAYCPHLYPLPLDIGDGHEGLARTLTDVTIDAWRANTAHTARVLGDVPIILGEFGLDTTLPGARDYIERVYGTAREMGAGVSYWSSDPGPWGPYLPDGTQTLLVDTLNKPYPRAVAGTPTEWSSTSDRLQLTIEPDAAITAPTEIYLPEAGFPGDVHVEGADVVGWDRQSRLLTVRTPADSGNVTVTVTPAA
Consider B1, for which the catalytic efficiency (kcat/Km) in data set [4] came to 3.1 M⁻¹ s⁻¹.

B2: Endoglycoceramidase II (Rhodococcus sp), A0ACD6B832 I183F (protein)
chain: B1 chain with M101V, I183F, R200K
Turning to B2, the kcat/Km in data set [5] was found to be 135 M⁻¹ s⁻¹; in data set [6], 527 M⁻¹ s⁻¹. For the same molecule, the Km in data set [7] and in [8] was 180 µM in each case. For the same molecule, the kcat in data set [7] was determined as 0.02 s⁻¹; in [8] it was 0.09 s⁻¹.

B3: Endoglycoceramidase II (Rhodococcus sp), A0ACD6B832 A153T (protein)
chain: B1 chain with M101V, A153T, R200K
On to B3, for which the Km in data set [9] turned out to be 420 µM; in [10], 460 µM. The kcat in data set [9] worked out at 0.17 s⁻¹; in data set [10], 0.2 s⁻¹. Further, the values for the kcat/Km in data set [11] and in data set [12] were 405 M⁻¹ s⁻¹ and 435 M⁻¹ s⁻¹, respectively.

B4: Endoglycoceramidase II (Rhodococcus sp), A0ACD6B832 V269I,G370R (protein)
chain: B1 chain with M101V, R200K, V269I, G370R
With B4, the Km in [13] worked out at 890 µM; in data set [14], 480 µM. The kcat in data set [13] is 0.17 s⁻¹; in [14], 0.26 s⁻¹. Further, the figures for the kcat/Km in [15] and in data set [16] were 191 M⁻¹ s⁻¹ and 542 M⁻¹ s⁻¹, respectively.

B5: Endoglycoceramidase II (Rhodococcus sp), A0ACD6B832 K129N (protein)
chain: B1 chain with M101V, K129N, R200K
Regarding B5, the kcat/Km in [17] is 3.1 M⁻¹ s⁻¹.

B6: Endoglycoceramidase II (Rhodococcus sp), A0ACD6B832 N148S (protein)
chain: B1 chain with M101V, N148S, R200K
On to B6, for which the kcat/Km in [18] was determined as 2.1 M⁻¹ s⁻¹.

B7: Endoglycoceramidase II (Rhodococcus sp), A0ACD6B832 V269I (protein)
chain: B1 chain with M101V, R200K, V269I
With B7, the Km in data set [19] came to 600 µM; in data set [20], 810 µM. Also, the kcat in data set [19] was 0.13 s⁻¹; in data set [20] it was 0.18 s⁻¹. The kcat/Km in data set [21] was 217 M⁻¹ s⁻¹; in data set [22], 222 M⁻¹ s⁻¹.
